According to US20130177579A1 (BIOALLIANCE C V, published 2013):

Assays:
[1] = molecular target: human transferrin receptor expressed by nonhematopoietic cancer cells (human) (UniProt P02786); assay: FACS, SU.86.86 cells, 1/5X
[2] = molecular target: T1, human transferrin receptor expressed by normal human cells (RBC, PMN, lymphocytes, monocytes, platelets, … (human, UniProt P02786 1-760)); assay: FACS, lymphocytes, donor D102, 1x
T1 construct: The assay is whole-cell FACS on normal donor cells; also called TfR on normal cells
T1 sequence (P02786 whole entry G142S): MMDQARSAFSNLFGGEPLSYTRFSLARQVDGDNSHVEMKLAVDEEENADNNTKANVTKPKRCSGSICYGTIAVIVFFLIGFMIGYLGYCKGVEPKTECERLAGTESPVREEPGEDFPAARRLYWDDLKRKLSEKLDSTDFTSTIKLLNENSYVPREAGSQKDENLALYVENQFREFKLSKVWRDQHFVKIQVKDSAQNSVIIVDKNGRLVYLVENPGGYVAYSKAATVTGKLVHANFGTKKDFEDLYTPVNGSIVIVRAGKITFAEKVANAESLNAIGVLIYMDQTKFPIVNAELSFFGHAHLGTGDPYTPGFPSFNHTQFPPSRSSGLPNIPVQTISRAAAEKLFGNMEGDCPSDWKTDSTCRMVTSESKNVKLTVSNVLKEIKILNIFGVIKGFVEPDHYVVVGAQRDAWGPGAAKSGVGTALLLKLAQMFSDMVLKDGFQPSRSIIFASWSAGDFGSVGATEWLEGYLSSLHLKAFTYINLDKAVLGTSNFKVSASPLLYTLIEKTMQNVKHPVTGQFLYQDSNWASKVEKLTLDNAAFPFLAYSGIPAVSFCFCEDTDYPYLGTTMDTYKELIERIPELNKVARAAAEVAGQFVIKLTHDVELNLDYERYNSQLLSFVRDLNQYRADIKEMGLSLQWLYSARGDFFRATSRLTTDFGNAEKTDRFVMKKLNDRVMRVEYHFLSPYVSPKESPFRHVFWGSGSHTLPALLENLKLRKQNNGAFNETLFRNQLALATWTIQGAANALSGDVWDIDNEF
Experimental: (§1) Preparation of PBMC and PMN: The whole blood was diluted with an equal volume of PBS and mixed with 1/10 volume of 15% Dextran solution. […] After centrifugation at 2200 rpm for 15 min (rotor: SORVALL, PN11788 and centrifuge: SORVALL, RT7), PBMC concentrated in the interface, were collected and washed with large volumes of FACS buffer (2% FBS in PBS) for future use. The PMN-rich pellet was collected, from which residual RBC was removed by hypotonic lysis in 0.2% NaCl.
(§2) 1×10⁵ cells were seeded in each well of a v-bottomed 96-well plate and incubated with 50 μl of hybridoma culture supernatant at 1× and 10× dilution, or isotype control antibody mouse IgM, κ (BD™, Cat. No. 557275) at concentration of 1 μg/ml. A 300× dilution of human cell hyper-immune serum was used as binding positive control for all cell types. PE-conjugated anti-human CD41a (Southern Biotech™, Cat. No. 9391-09) was used as a positive control for staining human platelets. Anti-sialyl Lewis x antibody (Millipore™, Cat. No. MAB2096) was used as a positive control for staining human PMN. Anti-human CD31 (Hycult™, Cat. No. HM2039) was used as a positive control for staining HUVEC. After 30 minutes incubation at 4° C., cells were washed twice with 200 μl FACS buffer (1×PBS containing 1% FBS), stained with 50 μl of 1 μg/ml goat F(ab′)2-anti-mouse IgG(H+L)-PE (Southern Biotech™, Cat. No. 1032-09) or 1 μg/ml goat F(ab′)2-anti-mouse IgM(H+L)-PE (Southern Biotech™, Cat. No. 1022-09) in FACS buffer. After 30 minutes of incubation at 4° C., cells were washed twice with FACS buffer and analyzed by flow cytometry (BD LSR, BD Life Sciences).

[3] = molecular target: T1, human transferrin receptor expressed by …; assay: FACS, RBC, donor D016, 1x
Experimental: (§3) The hyper-immuned serum (Hyp-serum) or the corresponding cell marker antibodies for certain cell types were included as positive controls.
as §2

[4] = molecular target: human transferrin receptor expressed by nonhematopoietic cancer cells (human) (UniProt P02786); assay: cell-based or functional assay
[5] = molecular target: T1, human transferrin receptor expressed by …; assay: FACS, monocytes, donor D005, 1x
Experimental: as §1, §2

[6] = molecular target: T2, human transferrin receptor expressed by Jurkat cells (human, UniProt P02786 1-760); assay: FACS, Jurkat cells, 1/10X
T2 construct: Endogenous receptor on Jurkat cells; MEM189 was the positive control; also called TfR on T leukemia cell line Jurkat
T2 sequence (P02786 whole entry G142S): as above

[7] = molecular target: T1, human transferrin receptor expressed by …; assay: FACS, lymphocytes, donor D014, 1x
Experimental: as §1, §2

[8] = molecular target: T1, human transferrin receptor expressed by …; assay: FACS, platelets, donor D016, 1/10x
Experimental: as §3, §2

[9] = molecular target: T1, human transferrin receptor expressed by …; assay: FACS, RBC, donor D102, 1/10x
Experimental: as §3, §2

[10] = molecular target: human transferrin receptor expressed by nonhematopoietic cancer cells (human) (UniProt P02786); assay: FACS, MDA-MB-453 cells, 1/5X
[11] = molecular target: T1, human transferrin receptor expressed by …; assay: FACS, lymphocytes, donor D005, 1x
Experimental: as §3, §2

[12] = molecular target: T1, human transferrin receptor expressed by …; assay: FACS, platelets, donor D016, 1x
Experimental: as §3, §2

[13] = molecular target: T1, human transferrin receptor expressed by …; assay: FACS, lymphocytes, donor D005, 1/10x
Experimental: as §1, §2

[14] = molecular target: T1, human transferrin receptor expressed by …; assay: FACS, RBC, donor D016, 1/10x
Experimental: as §3, §2

[15] = molecular target: T1, human transferrin receptor expressed by …; assay: FACS, HUVEC, 1/10x
Experimental: as §3, §2

[16] = molecular target: T1, human transferrin receptor expressed by …; assay: FACS, PMN, donor D016, 1/10x
Experimental: as §1, §2

[17] = molecular target: T1, human transferrin receptor expressed by …; assay: FACS, PMN, donor D014, 1/10x
Experimental: as §1, §2

[18] = molecular target: T1, human transferrin receptor expressed by …; assay: FACS, HUVEC, 1x
Experimental: as §3, §2

[19] = molecular target: T1, human transferrin receptor expressed by …; assay: FACS, PMN, donor D102, 1x
Experimental: as §1, §2

human transferrin receptor expressed by nonhematopoietic cancer cells (human), sequence (P02786 whole entry G142S): as above

B1: antibody 122-72 (antibody, V domains shown)
VH: EVQLVESGGGLVQPKGSLKLSCAASGFTFNTYAMNWVRQAPGKGLEWVARIRSKSNNYATYYADSVKDRFTISRDDSQSMLYLQMNNLKTEDTAMYYCVAYGSRNYWGQGTTLTVSS
VL: DIVMTQSPSSLTVTAGEKVTMSCKSSQSLLNSGNQKNYLTWYQQKPGQPPKLLIYWASTRESGVPDRFTGSGSGTDFTLTISSVQAEDLAVYYCQNDYSYPYTFGGGTKLEIKR
notes: Mouse IgM, kappa from a hybridoma; tested as hybridoma culture supernatant; Antibody 60-43 is said to have the same CDRs
[1]
  MFI: 4600 MFI
[2]
  % positive cell binding: < 1%
[3]
  % positive cell binding: 1%
[4]
  percentage of Annexin V positive and/or PI positive cells; COLO205; 1/2X (IgM 19.1): 80.3%
  percentage of Annexin V positive and/or PI positive cells; COLO205; 1/6X (IgM 19.1): 25.2%
  percentage of Annexin V positive and/or PI positive cells; COLO205; 1/18X (IgM 19.1): 18.6%
  percentage of Annexin V positive and/or PI positive cells; DLD1; 1/2X (IgM 24.3): 42.2%
  percentage of Annexin V positive and/or PI positive cells; DLD1; 1/6X (IgM 24.3): 38.6%
  percentage of Annexin V positive and/or PI positive cells; DLD1; 1/18X (IgM 24.3): 37.1%
  percentage of Annexin V positive and/or PI positive cells; H358; 1/2X (IgM 31.8): 70.8%
  percentage of Annexin V positive and/or PI positive cells; H358; 1/6X (IgM 31.8): 70.1%
  percentage of Annexin V positive and/or PI positive cells; H358; 1/18X (IgM 31.8): 63.9%
  percentage of Annexin V positive and/or PI positive cells; Pan 02.03B; 1/2X (IgM 16.9): 31.5%
  percentage of Annexin V positive and/or PI positive cells; Pan 02.03B; 1/6X (IgM 16.9): 20.5%
  percentage of Annexin V positive and/or PI positive cells; Pan 02.03B; 1/18X (IgM 16.9): 20.5%
  percentage of Annexin V positive and/or PI positive cells; SNU-16; 1/2X (IgM 30.0): 46.6%
  percentage of Annexin V positive and/or PI positive cells; SNU-16; 1/6X (IgM 30.0): 43.5%
  percentage of Annexin V positive and/or PI positive cells; SNU-16; 1/18X (IgM 30.0): 36.6%
  percentage of Annexin V positive and/or PI positive cells; SU.86.86; 1/2X (IgM 12.1): 41.3%
  percentage of Annexin V positive and/or PI positive cells; SU.86.86; 1/6X (IgM 12.1): 29.3%
  percentage of Annexin V positive and/or PI positive cells; SU.86.86; 1/18X (IgM 12.1): 23.4%
[5]
  % positive cell binding: 2%
[6]
  % of gated cells: < 1%
[7]
  % positive cell binding: < 1%
[8]
  % positive cell binding: < 1%
[9]
  % positive cell binding: < 1%
[10]
  MFI: 16 MFI
[11]
  % positive cell binding: < 1%
[12]
  % positive cell binding: < 1%
[13]
  % positive cell binding: 1%
[14]
  % positive cell binding: 1%
[15]
  % positive cell binding: 1%
[16]
  % positive cell binding: 1%
[17]
  % positive cell binding: < 1%
[18]
  % positive cell binding: 1%
[19]
  % positive cell binding: 1%
